These results are taken from paper PMC5282591, “The differential ability of asparagine and glutamine in promoting the closed/active enzyme conformation rationalizes the Wolinella succinogenes L-asparaginase substrate specificity” (Scientific Reports, 2017).

What all share (assay): purified protein
Details in all cases: 37 °C

Substrate in data set [1]: NC(=O)CC[C@H](N)C(=O)O
Substrate in data set [2]: NC(=O)C[C@H](N)C(=O)O
Type of data set: biochemical, Wolinella succinogenes.

Substrate in data set [3]: NC(=O)CC[C@H](N)C(=O)O
Type of data set: biochemical, Wolinella succinogenes.

B1: WoA-S121 (Wolinella succinogenes L-asparaginase) (Wolinella succinogenes DSM 1740) (protein)
chain: MAKPQVTILATGGTIAGSGESSVKSSYSAGAVTVDKLLAAVPAINDLATIKGEQISSIGSQEMTGKVWLKLAKRVNELLAQKETEAVIITHGTDTMEETAFFLNLTVKSQKPVVLVGAMRSGSSMSADGPMNLYNAVNVAINKASTNKGVVIVMNDEIHAAREATKLNTTAVNAFASPNTGKIGTVYYGKVEYFTQSVRPHTLASEFDISKIEELPRVDILYAHPDDTDVLVNAALQAGAKGIIHAGMGNGNPFPLTQNALEKAAKSGVVVARSSRVGSGSTTQEAEVDDKKLGFVATESLNPQKARVLLMLALTKTSDREAIQKIFSTY
notes: recombinant, pET28 vector, E. coli BL21-AI; 330 residues per protomer; tetramer (dimer of dimers)
As for B1, in “purified protein [1]”, the Km (in general, the substrate concentration at which the rate is half of its maximum) came out at 380 ± 50 µM; the kcat – broadly, the maximal rate divided by the concentration of active sites – turned out to be 1.58 s⁻¹; the kcat/Km – broadly, the second-order rate constant that governs catalysis at low substrate concentration – is 4200 M⁻¹ s⁻¹. Also, in the data set “purified protein [2]”, the Km is 21.7 ± 1.2 µM, the turnover number (kcat) is 97.8 ± 1 s⁻¹ and the kcat/Km was 4.5e+06 ± 250000 M⁻¹ s⁻¹.

B2: WoA-S121 (Wolinella succinogenes L-asparaginase) (Wolinella succinogenes DSM 1740; S121P) (protein)
chain: MAKPQVTILATGGTIAGSGESSVKSSYSAGAVTVDKLLAAVPAINDLATIKGEQISSIGSQEMTGKVWLKLAKRVNELLAQKETEAVIITHGTDTMEETAFFLNLTVKSQKPVVLVGAMRPGSSMSADGPMNLYNAVNVAINKASTNKGVVIVMNDEIHAAREATKLNTTAVNAFASPNTGKIGTVYYGKVEYFTQSVRPHTLASEFDISKIEELPRVDILYAHPDDTDVLVNAALQAGAKGIIHAGMGNGNPFPLTQNALEKAAKSGVVVARSSRVGSGSTTQEAEVDDKKLGFVATESLNPQKARVLLMLALTKTSDREAIQKIFSTY
notes: as for B1
Consider B2, for which, in the data set “purified protein [2]”, the Km is 23.6 ± 1.1 µM, the kcat turned out to be 86.7 ± 0.8 s⁻¹ and the kcat/Km is 3.7e+06 ± 170000 M⁻¹ s⁻¹. Further, in the data set “purified protein [3]”, the Km amounted to 320 ± 20 µM, the kcat worked out at 11.33 ± 0.11 s⁻¹ and the kcat/Km amounted to 35300 ± 2240 M⁻¹ s⁻¹.
